# Patent US20200102389A1 (Hoffmann-La Roche, published 2020)
# B1: HLA-G-0032 (antibody, V domains shown)
# VH: QVQLQQSGAELVKPGSSVKISCKASGYSFPSYDMHWIKQQPGNGLEWIGWIYPGNGNTKYNQKFNGKASLTADKSSSTAYMQLSSLTSEDSAVYFCAKPTVATRYNWFAYWGQGTLVTVSS
# VL: QIVLTQSPALMSASPGEKVTMTCSASSSVNYMHWYQQKPRSSPKPWIYLTSNLASGVPARFSGSGSGTSYSLTISTMEAEDAATYYCQQWSSNLPITFGSGTKLEIK
# B2: HLA-G-0037 (antibody, V domains shown)
# VH: QVQLKESGPGLVQPSQTLSLTCSVSGFSLTTYSVSWVRQPPGKGLEWIGAIWSGGSTDYNSALKSRLRISRDTSKSQVLLKMNSLQTEDRAMYFCVRMNNKFGYWYFDLWGPGTMVTVSS
# VL: DTVLTQSPTLAVSPGEKITISCRASETVSTMLHWYQQKPGQQPKLLISLASHLESGVPARFTGSGSGTDFTLTIDPVEADDTATYYCQQTWNDPLTFGSGTKLEIK
# B3: HLA-G-0033 (antibody, V domains shown)
# VH: EVQLVETGGGLVQSGRSLKLSCVASGFTFNDYWMTWTRQAPGKGLEWVASITNSGGRTYYLDSVRGRFTISRDDAQNTLYLQMNSLRSEDTATYYCTKERIYLTAYWFFDFWGPGTMVTVSS
# VL: DTILTQSPALAVSPGERVTISCRASESVSTLIHWYQQKPGQRPKLLIYLASHLESGVPARFSGSGSGTDFTLTIDPVEADDTATYYCQQSWNEPRTFGGGTKLELK
# Target: T1, recombinant soluble human HLA-G β2M MHC class I complex, monomer (human)
# T1 construct: His tagged; also called HLA-G-0003
# Assay: ELISA, biotinylated wt HLA-G monomer on streptavidin plate
# Protocol: Streptavidin coated plates (Nunc, MicroCoat #11974998001) were coated with 25 μl/well biotinylated human wt HLA-G at a concentration of 250 ng/ml and incubated at 4° C. overnight. After washing (3×90 μl/well with PBST-buffer) 25 μl anti-HLA-G samples (1:3 dilution in OSEP buffer) or reference antibody (G233, Thermo/Pierce #MA1-19449, 500 ng/ml) were added and incubated 1 h at RT. After washing (3×90 μl/well with PBST-buffer) 25 μl/well goat-anti-mouse H+L-POD (Biorad #170-6561, 1:2000 in OSEP) or donkey-anti-rabbit IgG POD (GE #NA9340V, 1:5000 in OSE) was added and incubated at RT for 1 h on shaker. For detection of rat IgGs a mixture of goat-anti-rat IgG1-POD (Bethyl #A110-106P), goat-anti-rat IgG2a-POD (Bethyl #A110-109P) and goat-anti-rat IgG2b-POD (Bethyl #A110-111P) 1:10000 in OSEP was added and incubated at RT for 1 h on shaker. After washing (6×90 μl/well with PBST-buffer) 25 μl/well TMB substrate (Roche, 11835033001) was added and incubated until OD 2-3. Measurement took place on a Tecan Safire 2 instrument at 370/492 nm.
# The above table summarizes the binding of different rat anti-human HLA-G monoclonal antibodies, derived from wt protein IMS. Shown are the relative EC50 values [ng/ml] of the respective binding to rec. wt monomeric, dimeric and trimeric HLA-G proteins as assessed by ELISA. The ELISA was set up by coating the biotinylated wt HLA-G antigen to strepdavidin plates. After incubation and washing steps, the respective antibodies were bound in a concentration range from 10-0 μg in 1:2 dilution steps. Detection of bound antibodies was carried out by anti-Fc-antibody-POD conjugates. EC50 values were determined from the resulting binding curves at the antibody concentrations generating the half-maximal signal. In case of the non-biotinylated HLA-G dimer and trimer antigens, immobilization was carried out by random coating on assay plates.
row,Binder,EC50 [nM]
1,B1,3.59
2,B2,4.95
3,B3,4.94

# Target: T1, recombinant soluble human HLA-G β2M MHC …
# Assay: competition ELISA, immobilised biotinylated wt HLA-G, competitor c-myc ILT2
# Protocol: Streptavidin coated plates (Nunc, MicroCoat #11974998001) were coated with 25 μl/well biotinylated human wt HLA-G at a concentration of 500 ng/ml and incubated at 4° C. overnight. After washing (3×90 μl/well with PB ST-buffer) 25 μl anti-HLA-G samples were added in decreasing concentrations starting at 8 μg/ml, then diluted in 1:3 steps and incubated 1 h at RT. After washing (3×90 μl/well with PBST-buffer) 25 μl/well c-myc-tagged recombinant ILT-2 receptor was added at a concentration of 150 ng/ml and incubated for 1 h at room temperature. After washing (3×90 μl/well with PBST-buffer) 25 μl/well goat-anti-c-myc-POD (Bethyl #A190-104P 1:7000 in OSE) was added and incubated at RT for 1 h on a shaker. After washing (6×90 μl/well with PBST-buffer), 25 μl/well TMB substrate (Roche, 11835033001) was added and incubated until OD 2-3. Measurement took place on a Tecan Safire 2 instrument at 370/492 nm
# (§1) The ELISA was set up by coating the biotinylated antigen wt HLA-G to strepdavidin plates. After incubation and washing steps, the respective antibodies were bound in a concentration range from 8-0 μg in 1:3 dilution steps. C-myc tagged ILT-2 or -4 receptor was added to the HLA-G-antibody complexes. After incubation and washing steps, detection of bound receptor was carried out by anti-cmyc-antibody-POD conjugates. IC50 values were determined from the resulting inhibition curves at the antibody concentrations generating the half-maximal inhibition. In case of the non-biotinylated HLA-G dimer and trimer antigens, immobilization was carried out by random coating on assay plates.
row,Binder,% inh. ILT2 (3 µg/ml antibody) [%]
1,B1,86.8
2,B2,82.9
3,B3,85.3

# Target: T2, recombinant soluble human HLA-G β2M MHC class I complex, dimer (human)
# T2 construct: also called HLA-G Dimer; fraction A9
# Assay: blocking ELISA, Fc tagged ILT2 coated, 100 nM antibody, soluble HLA-G dimer
# Protocol: (§2) The ELISA was set up by coating the Fc tagged ILT2 and ILT4 respectively to Maxisorp microtiter plates. After incubation and washing steps, the respective antibodies were added at a concentration of 100nM. Soluble His tagged monomeric, dimeric or trimeric HLA-G was added to the wells. After incubation and washing steps, detection of bound receptor was carried out by anti-His-antibody-POD conjugates.
row,Binder,% inh. ILT2 [%]
1,B1,95
2,B2,96
3,B3,95

# Target: T2, recombinant soluble human HLA-G β2M MHC …
# Assay: blocking ELISA, Fc tagged ILT4 coated, 100 nM antibody, soluble HLA-G dimer
# Protocol: as §2
row,Binder,% inh. ILT4 [%]
1,B1,62
2,B2,61
3,B3,70

# Target: T2, recombinant soluble human HLA-G β2M MHC …
# Assay: competition ELISA, immobilised HLA-G dimer, antibody titrated, competitor c-myc ILT2
# Protocol: as §1
row,Binder,IC50 [nM]
1,B1,1.3
2,B2,0.8
3,B3,1.2
